B1: Ugt2b34 (Mus musculus) (protein)
chain: GKVLVWPMEFSHWLNLKTILDELLKKGHEVMVLRPSASLSYEVDNTSAIEFETYPTSYSLSELEEIFWESLKKYIYELPKQSFWGYFLMLQEMVWVDSKYFESLCKDVVFNKELMTKLQKSRFDVILADPFIPCGDLLAEVLKIPLVYSLRFFPGSTYEKYSGGLPLPPSYVPVVMSELSDRMTFMERVRNVIYMLCFDFWFQTFNEKNWNQLYTEVLGRPTTLSETMAKADIWLIRTYWDLEFPHPVLPNFDFIGGLHCRPAKPLPKEIEDFVQSSGEHGVVVFSLGSMVGSITEERANVIAAGLAQIPQKVLWRFEGKKPETLGSNTRLYKWIPQNDLLGHSKTRAFITHGGTNGIYEAIYHGIPVVGIPLFGDQYDNIVHLKAKGAAVRLDFLTMSSTDLHTALKTVTNDPSYKENAMRLSRIHHDQPVKPLDRAVFWIEFVMRHKGAKHLRVAAHDLSWVQYHSLDVLGFLLACVLTVMFILKKCCLFCCQKLTKAGRKKKGE
B2: Ugt2b5 (Mus musculus) (protein)
chain: GKVLVWPMEFSHWMNIKIILDELVQRGHEVTVLRPSAYYVLDPKKSPGLKFETFPTSVSKDNLENFFIKFVDVWTYEMPRDTCLSYSPLLQNMIDEFSDYFLSLCKDVVSNKELMTKLQESKFDVLLSDPVASCGELIAELLQIPFLYSIRFSPGYQIEKSSGRFLLPPSYVPVILSGLGGQMTFIERIKNMICMLYFDFWFQMFNDKKWDSFYSEYLGRPTTLVETMGQAEMWLIRSNWDLEFPHPTLPNVDYVGGLHCKPAKPLPKDMEEFVQSSGDHGVVVFSLGSMVSNMTEEKANAIAWALAQIPQKVLWKFDGKTPATLGHNTRVYKWLPQNDLLGHPKTKAFVTHGGANGVYEAIYHGIPMIGIPLFGEQHDNIAHMVAKGAAVALNIRTMSKSDVLNALEEVIENPFYKKNAIWLSTIHHDQPMKPLDRAVFWIEFVMRHKRAKHLRPLGHNLTWYQYHSLDVIGFLLSCVATTIVLSVKCLLFIYRFFVKKENKMKNE
B3: Ugt2b1 (Mus musculus) (protein)
chain: KVLVWPTEYSHWINMKIILDELVQRGHDVTVLISSASILIGPSNESSINFEIYSAPLSKDDLEYAFEKWVGNWTYELKKLPFWTSYSKLQKISSEYSDMIESFCKAVVWNKSLMKKLQGSKFDVVLADALVPCGELLSELLKTPLVYSLRFCPGYKCEKYSGGLPLPPSYVPVVLSELSDHMTFAERVKNMLQVLLFDFWFQTFNEKSWNQFYSDVLGRPTTLTEMMGKADIWLVRTFWDLKFPHPFLPNFDFVGGLHCKPAKPLPKEMEEFVQSSGEHGVVVFSLGSMVKNIKEEKANVVASALAQIPQKVLWRFDGKKPDTLGSNTRLYKWIPQNDLLGHPKTKAFIAHGGTNGIYEAIYHGIPIVGIPLFGDQPDNINHIVAKGAAVRVDFDTMSTTDLLTALKTVINDPSYKENAMRLSRIHHDQPMKPLDRAVFWIEYVMRNKGAKHLRPALHDLTWFQYHSLDVIGFLLVCVVAVVFIIAKCCLFCCHKTANMGKKKKE

Legend:
Assay in all cases: cells, lysate or membranes
[1] = substrate: C[C@]12CCC(=O)C[C@@H]1CC[C@@H]1[C@@H]2CC[C@]2(C)[C@@H](O)CC[C@@H]12; conditions: UDP-glucuronic acid co-substrate, 37 °C, DHT-glucuronide formation
[2] = substrate: C[C@]12CC[C@@H](O)C[C@@H]1CC[C@@H]1[C@@H]2CC[C@]2(C)[C@@H](O)CC[C@@H]12; conditions: UDP-glucuronic acid co-substrate, 37 °C, 17-glucuronide (3α-Diol-17G) formation
[3] = substrate: C[C@]12CC[C@H]3[C@@H](CCC4=CC(=O)CC[C@@]43C)[C@@H]1CC[C@@H]2O; conditions: UDP-glucuronic acid co-substrate, 37 °C, testosterone-glucuronide formation
[4] = table value, text b37 prints 22.5 ± 5.1
[5] = table value, text b37 prints 17.8 ± 2.0

Protein	Km [1] [µM]	Vmax [1] [µmol/min/mg]	Km [2] [µM]	Vmax [2] [µmol/min/mg]	Km [3] [µM]	Vmax [3] [µmol/min/mg]	Km [2, 4] [µM]	Vmax [2, 4] [µmol/min/mg]	Km [2, 5] [µM]	Vmax [2, 5] [µmol/min/mg]
B1	54.9 ± 2.9	4.31e-05	16.3 ± 4.8	8.5e-06						
B2	35.6 ± 11.5	5.05e-05			65.5 ± 8.6	0.000186	22.7 ± 5.1	0.000115		
B3	17.8 ± 0.7	0.000238			20.3 ± 0.7	5.12e-05			11.7 ± 2.0	3.48e-05

Reference: PMC8945853, “Androgen Glucuronidation in Mice: When, Where, and How” (Biology, 2022)
